Test [1] deals with T1, human LAG3 (expressed on cells) (human).
T1 construct: also called Hu LAG3; human LAG3 transfectants
T1 chain: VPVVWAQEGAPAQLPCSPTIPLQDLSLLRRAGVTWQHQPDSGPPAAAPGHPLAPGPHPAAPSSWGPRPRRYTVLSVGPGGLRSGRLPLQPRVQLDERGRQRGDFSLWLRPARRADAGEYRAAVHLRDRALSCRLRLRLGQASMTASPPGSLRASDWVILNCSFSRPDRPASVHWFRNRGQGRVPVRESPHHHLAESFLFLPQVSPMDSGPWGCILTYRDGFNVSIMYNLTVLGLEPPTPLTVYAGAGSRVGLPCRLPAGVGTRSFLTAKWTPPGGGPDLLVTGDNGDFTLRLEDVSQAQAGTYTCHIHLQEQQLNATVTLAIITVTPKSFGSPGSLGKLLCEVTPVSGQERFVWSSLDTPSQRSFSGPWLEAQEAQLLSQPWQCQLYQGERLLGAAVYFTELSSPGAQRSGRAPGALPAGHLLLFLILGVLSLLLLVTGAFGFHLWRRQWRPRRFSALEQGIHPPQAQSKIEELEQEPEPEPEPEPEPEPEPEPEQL
Briefly: cell-based KinExA; human LAG3 on BaF/3 cells; ratio to ADI-12126.

In test [2] the target is T1, human LAG3 (expressed on cells). Put plainly: cell-based KinExA; BaF/3 cells stably transfected with human LAG3; n = 1. On the procedure:
(§1) The affinities of the anti-LAG3 antibodies for human and cynomolgous monkey LAG3 were determined using a cell based Kinetic Exclusion Assay (KinExA). Cell based KinExA can be used to measure the affinity of a molecule for a binding partner on a cell surface (Rathanaswami et al. Analylitical Biochemistry 373(1): 52-60 (2008); Xie et al. J. Immunol. Methods 304 (1-2): 1-14 (2005)). In this case, BaF/3 cells were stably transfected with human or cynomolgus monkey LAG3 proteins. Transfected cells or the parental BaF/3 control cell line were grown to a density of 1.7×10⁶ to 3.2×10⁶ cells per ml at 37° C., 120 RPM, 5% CO₂, in 1×RPMI 1640 media with 10% FBS, 10 ng/ml IL-3, 5 μg/ml puromycin. Cells were concentrated, mixed with 15 pM or 150 pM antibody in cell culture media and incubated 24 to 48 hours at room temperature while rotating at 20 to 30 RPM. Cells were present at a top concentration of 2×10⁷ cells per ml (parental BaF/3 or cynomolgus LAG3 transfectants) or 1×10⁷ cells per ml (human LAG3 transfectants) and diluted in a 2-fold, 18 member series. The cells were pelleted and free antibody in the supernatant was measured using a KinExA 3200 instrument (Sapidyne, Idaho, USA). […] Antibody on the beads was labeled with 1.5 μg/ml Alexa Fluor® 647 conjugated goat anti-human (Fab′)₂ (Jackson ImmunoResearch Laboratories), washed and the fluorescent signal was read all using the KinExA™ 3200. […]

Test [3] shares this target. Put plainly: cell-based KinExA; BaF/3 cells stably transfected with human LAG3; n = 2. On the procedure:
as §1

The target is the same in test [4]. Put plainly: cell-based KinExA; BaF/3 cells stably transfected with human LAG3; n = 3. On the procedure: as §1
Test [5] has the same target. Put plainly: cell-based KinExA; BaF/3 cells stably transfected with human LAG3; average of n = 1-3. On the procedure: as §1
Test [6] deals with T2, human LAG3-His tagged recombinant protein (human).
T2 construct: also called human LAG3-His protein; recombinant human LAG3
Briefly: SPR, Biacore T200; antibody captured, human LAG3-His as analyte, 1:1 Langmuir fit; n = 1. On the procedure:
(§2) Approximately 4000 RU of […], Fragment Specific (Jackson ImmunoResearch Catalog #115-006-071, Lot 81313) was immobilized via amine coupling chemistry onto a Series S CM4 sensor chip, catalog number BR-1005-34. Human anti-human LAG3 clones were injected over the immobilized anti-human surfaces at 1 ug/mL for a capture level of 40 RU. HBS-EP+ buffer (BR-1006-69) was used as the running buffer with a flow rate of 30 μL/min.
(§3) Varying concentrations of human LAG3-His protein ranging from 0.15 nM to 18.8 nM, at a flow rate of 40 μL/min were injected over the antibody surfaces. Following each injection cycle, the Series S CM4 chip surface was regenerated using one six second injection of 10 mM Glycine pH 1.5 solution followed by an injection of 12.5 mM NaOH solution at a flow rate of 60 μL/min.
(§4) Background subtraction binding sensorgrams were used for analyzing the rate constant of association (kₐ) and dissociation (kd), and the equilibrium dissociation constant KD. The resulting data sets were fitted with a 1:1 Langmuir Binding Model using the Biacore T200 evaluation software (version 2.0).
Target sequence in this assay (P18627 23-450): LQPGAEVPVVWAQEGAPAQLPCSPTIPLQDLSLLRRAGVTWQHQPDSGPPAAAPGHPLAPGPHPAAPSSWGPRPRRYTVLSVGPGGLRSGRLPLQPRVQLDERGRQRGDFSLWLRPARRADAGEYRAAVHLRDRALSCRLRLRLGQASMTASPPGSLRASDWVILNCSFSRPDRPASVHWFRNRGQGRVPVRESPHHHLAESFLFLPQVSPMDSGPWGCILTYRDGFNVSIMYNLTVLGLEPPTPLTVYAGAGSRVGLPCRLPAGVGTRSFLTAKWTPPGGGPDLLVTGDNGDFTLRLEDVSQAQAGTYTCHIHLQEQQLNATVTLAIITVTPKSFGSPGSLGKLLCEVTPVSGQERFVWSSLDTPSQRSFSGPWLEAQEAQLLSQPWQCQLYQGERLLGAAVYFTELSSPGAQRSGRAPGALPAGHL

The target in test [7] is T2, human LAG3-His tagged recombinant …. Briefly: SPR, Biacore T200; antibody captured, human LAG3-His as analyte, 1:1 Langmuir fit; n = 2. On the procedure: as §2, §3, §4
Target sequence in this assay (P18627 23-450): as above
Test [8] shares this target. Put plainly: SPR, Biacore T200; antibody captured, human LAG3-His as analyte, 1:1 Langmuir fit; average. On the procedure: as §2, §3, §4
Target sequence in this assay (P18627 23-450): as above
The target is the same in test [9]. Briefly: SPR, Biacore T200; fold against the parental antibody, as printed in this row. On the procedure: as §2, §3, §4

Data on eight molecules can be found in patent publication US20180369375A1 (Merck Sharp & Dohme, published 2018).

B1: ADI-12126 M57G/M115L (antibody, V domains shown)
VH: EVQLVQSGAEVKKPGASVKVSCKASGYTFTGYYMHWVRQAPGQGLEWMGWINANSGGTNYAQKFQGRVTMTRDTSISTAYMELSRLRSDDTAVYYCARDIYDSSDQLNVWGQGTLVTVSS
VL: EIVLTQSPATLSLSPGERATLSCRASQSVSSYLAWYQQKPGQAPRLLIYDASNRATGIPARFSGSGSGTDFTLTISSLEPEDFAVYYCQQASIWPLTFGGGTKVEIKR
Consider B1, for which, in [1], the “KD/KD ref (ref = ADI-12126)” value amounted to 0.8. In addition, the Kd in [2] worked out at 0.015 nM; in test [3] it was 0.025 nM; in [4] it was 0.013 nM; in test [5], 0.018 nM.

B2: ADI-12126 M57A/M115L (antibody, V domains shown)
VH: EVQLVQSGAEVKKPGASVKVSCKASGYTFTGYYMHWVRQAPGQGLEWMGWINANSGATNYAQKFQGRVTMTRDTSISTAYMELSRLRSDDTAVYYCARDIYDSSDQLNVWGQGTLVTVSS
VL: EIVLTQSPATLSLSPGERATLSCRASQSVSSYLAWYQQKPGQAPRLLIYDASNRATGIPARFSGSGSGTDFTLTISSLEPEDFAVYYCQQASIWPLTFGGGTKVEIKR
Turning to B2, the “KD/KD ref (ref = ADI-12126)” value in [1] came out at 0.9. Also, the Kd in test [2] came to 0.017 nM; in test [3], 0.03 nM; in test [4], 0.017 nM; in test [5], 0.021 nM.

B3: ADI-12126 (Q1E, M57S, M115L) IgG4 S228P/Kappa (antibody, V domains shown)
VH: EVQLVQSGAEVKKPGASVKVSCKASGYTFTGYYMHWVRQAPGQGLEWMGWINANSGSTNYAQKFQGRVTMTRDTSISTAYMELSRLRSDDTAVYYCARDIYDSSDQLNVWGQGTLVTVSS
VL: EIVLTQSPATLSLSPGERATLSCRASQSVSSYLAWYQQKPGQAPRLLIYDASNRATGIPARFSGSGSGTDFTLTISSLEPEDFAVYYCQQASIWPLTFGGGTKVEIKR
As for B3, the values for the dissociation constant Kd in test [6], in [7] and in [8] were 0.134 nM, 0.119 nM and 0.127 nM, respectively.

B4: ADI-12126 (Q1E, M57Y, M115L) IgG4 S228P/Kappa (antibody, V domains shown)
VH: EVQLVQSGAEVKKPGASVKVSCKASGYTFTGYYMHWVRQAPGQGLEWMGWINANSGYTNYAQKFQGRVTMTRDTSISTAYMELSRLRSDDTAVYYCARDIYDSSDQLNVWGQGTLVTVSS
VL: EIVLTQSPATLSLSPGERATLSCRASQSVSSYLAWYQQKPGQAPRLLIYDASNRATGIPARFSGSGSGTDFTLTISSLEPEDFAVYYCQQASIWPLTFGGGTKVEIKR
B4: the values for the Kd in [6], in test [7] and in [8] were 0.032 nM, 0.034 nM and 0.033 nM, respectively.

B5: ADI-12126 (Q1E, M57V, M115L) IgG4 S228P/Kappa (antibody, V domains shown)
VH: EVQLVQSGAEVKKPGASVKVSCKASGYTFTGYYMHWVRQAPGQGLEWMGWINANSGVTNYAQKFQGRVTMTRDTSISTAYMELSRLRSDDTAVYYCARDIYDSSDQLNVWGQGTLVTVSS
VL: EIVLTQSPATLSLSPGERATLSCRASQSVSSYLAWYQQKPGQAPRLLIYDASNRATGIPARFSGSGSGTDFTLTISSLEPEDFAVYYCQQASIWPLTFGGGTKVEIKR
As to B5, the Kd in [6] amounted to 0.282 nM; in test [7] it was 0.25 nM; in test [8], 0.266 nM.

B6: ADI-12126 (Q1E, M57T, M115L) IgG4 S228P/Kappa (antibody, V domains shown)
VH: EVQLVQSGAEVKKPGASVKVSCKASGYTFTGYYMHWVRQAPGQGLEWMGWINANSGTTNYAQKFQGRVTMTRDTSISTAYMELSRLRSDDTAVYYCARDIYDSSDQLNVWGQGTLVTVSS
VL: EIVLTQSPATLSLSPGERATLSCRASQSVSSYLAWYQQKPGQAPRLLIYDASNRATGIPARFSGSGSGTDFTLTISSLEPEDFAVYYCQQASIWPLTFGGGTKVEIKR
As for B6, the figures for the Kd in test [6], in test [7] and in test [8] were 0.066 nM, 0.065 nM and 0.066 nM, respectively.

B7: ADI-12126 (Q1E, M57A, M115L) IgG4 S228P/Kappa (antibody, V domains shown)
VH: EVQLVQSGAEVKKPGASVKVSCKASGYTFTGYYMHWVRQAPGQGLEWMGWINANSGATNYAQKFQGRVTMTRDTSISTAYMELSRLRSDDTAVYYCARDIYDSSDQLNVWGQGTLVTVSS
VL: EIVLTQSPATLSLSPGERATLSCRASQSVSSYLAWYQQKPGQAPRLLIYDASNRATGIPARFSGSGSGTDFTLTISSLEPEDFAVYYCQQASIWPLTFGGGTKVEIKR
As to B7, the Kd in test [6], in [7] and in [8] was 0.013 nM throughout.

B8: ADI-12126 (Q1E, M57G, M115L) IgG4 S228P/Kappa (antibody, V domains shown)
VH: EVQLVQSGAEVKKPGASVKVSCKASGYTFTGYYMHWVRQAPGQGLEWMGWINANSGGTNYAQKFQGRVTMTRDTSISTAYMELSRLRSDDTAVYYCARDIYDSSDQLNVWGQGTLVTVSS
VL: EIVLTQSPATLSLSPGERATLSCRASQSVSSYLAWYQQKPGQAPRLLIYDASNRATGIPARFSGSGSGTDFTLTISSLEPEDFAVYYCQQASIWPLTFGGGTKVEIKR
notes: The parental residues are Q1, M57, M115
For B8, in [9], the “Fold weaker than ADI-12126 (M57, M115) IgG4 S228P/Kappa” value came out at 4.6 fold. The Kd was 0.011 nM in [6], 0.01 nM in test [7] and 0.01 nM in [8].
